US20260286413A1, “HYALURONAN SYNTHESIS, SECRETION AND LENGTH CONTROL” (UNIVERSITY OF VIRGINIA, priority 2023, published 2026)

What was measured:
X1HAS1 [1] = experiment: Substrate turnover rate quantification (UDP release, enzyme-coupled assay); type: biochemical, Xenopus laevis; details: UDP release
Method: UDP release during HA synthesis was quantified using an enzyme-coupled assay as previously described (10, 13). Depletion of NADH was monitored at 340 nm every 60 s for 3 hours at 37° C. in a SpectraMax instrument. The raw data was processed in MS Excel and a linear phase of each reaction was determined. The rate of NADH depletion was converted to pmoles of UDP released using a UDP standardized plot (FIG. S1C) for Michaelis-Menten constant determination using GraphPad Prism. For substrate turnover rate quantification of X1HAS1 mutants, pmoles of released UDP were converted to the number of corresponding substrate turnovers per molecule of X1HAS1, per minute. Data is presented relative to wild type activity. All experiments were performed in four to eight replicates and error bars represent standard deviation from the means.
HAS transfers the UDP-activated glycosyl unit (the donor sugar) to the non-reducing end of the nascent HA polymer (the acceptor sugar). This reaction generates UDP and elongated HA as reaction products (FIG. 1A). Catalytic activity can be assessed by monitoring the release of UDP in an enzyme-coupled reaction, as previously described (10, 13), or quantifying HA, either radiometrically or by dye staining following electrophoresis.

X1HAS1 [2] = experiment: Electrophoretic HA size determination (agarose gel, Stains-all) of in vitro synthesized HA; type: biochemical, Xenopus laevis; details: for HA product versus WT: short and long reactions (1 h or 8 h), not distinguished
Method: To assess the size of HA synthesized by X1HAS1, similar reaction conditions were applied to the ones described above. […] […] Controls were carried out by digesting the synthesized polymers with hyaluronidase. Synthesis reactions were mixed with SDS-PAGE loading dye and applied to a 1% agarose gel (Ultra-pure agarose, Invitrogen) casted in an Owl B2 system (ThermoFisher). […] After the run, the gel was equilibrated in 50% ethanol for 1.5 h and subjected to staining in 0.05% Stains-all (Sigma) in 50% ethanol overnight under light-protection. Post-staining background was reduced by soaking the gel in 20% ethanol for 3-7 days in the dark. The migration of the synthesized HA species was compared to HA standards from Streptococcus equi (Sigma), as well as enzymatically generated ladders: HA LoLadder and HA HiLadder (Hyalose).

B1: R496A: X1HAS1 mutant, Arg496 replaced with Ala (protein, UniProt P13563 1-588, looked up, variant R496A)
Hyaluronan synthase 1: MKEKAAETMEIPEGIPKDLEPKHPTLWRIIYYSFGVVLLATITAAYVAEFQVLKHEAILFSLGLYGLAMLLHLMMQSLFAFLEIRRVNKSELPCSFKKTVALTIAGYQENPEYLIKCLESCKYVKYPKDKLKIILVIDGNTEDDAYMMEMFKDVFHGEDVGTYVWKGNYHTVKKPEETNKGSCPEVSKPLNEDEGINMVEELVRNKRCVCIMQQWGGKREVMYTAFQAIGTSVDYVQVCDSDTKLDELATVEMVKVLESNDMYGAVGGDVRILNPYDSFISFMSSLRYWMAFNVERACQSYFDCVSCISGPLGMYRNNILQVFLEAWYRQKFLGTYCTLGDDRHLTNRVLSMGYRTKYTHKSRAFSETPSLYLRWLNQQTRWTKSYFREWLYNAQWWHKHHIWMTYESVVSFIFPFFITATVIRLIYAGTIWNVVWLLLCIQIMSLFKSIYACWLRGNFIMLLMSLYSMLYMTGLLPSKYFALLTLNKTGWGTSGAKKIVGNYMPILPLSIWAAVLCGGVGYSIYMDCQNDWSTPEKQKEMYHLLYGCVGYVMYWVIMAVMYWVWVKRCCRKRSQTVTLVHDIPDMCV
substrate turnover / catalytic activity compared to WT (X1HAS1 [1]): abolishes catalytic activity

B2: C307S: X1HAS1 mutant, Cys307 replaced with Ser (protein, UniProt P13563 1-588, looked up, variant C307S)
Hyaluronan synthase 1: MKEKAAETMEIPEGIPKDLEPKHPTLWRIIYYSFGVVLLATITAAYVAEFQVLKHEAILFSLGLYGLAMLLHLMMQSLFAFLEIRRVNKSELPCSFKKTVALTIAGYQENPEYLIKCLESCKYVKYPKDKLKIILVIDGNTEDDAYMMEMFKDVFHGEDVGTYVWKGNYHTVKKPEETNKGSCPEVSKPLNEDEGINMVEELVRNKRCVCIMQQWGGKREVMYTAFQAIGTSVDYVQVCDSDTKLDELATVEMVKVLESNDMYGAVGGDVRILNPYDSFISFMSSLRYWMAFNVERACQSYFDCVSSISGPLGMYRNNILQVFLEAWYRQKFLGTYCTLGDDRHLTNRVLSMGYRTKYTHKSRAFSETPSLYLRWLNQQTRWTKSYFREWLYNAQWWHKHHIWMTYESVVSFIFPFFITATVIRLIYAGTIWNVVWLLLCIQIMSLFKSIYACWLRGNFIMLLMSLYSMLYMTGLLPSKYFALLTLNKTGWGTSGRKKIVGNYMPILPLSIWAAVLCGGVGYSIYMDCQNDWSTPEKQKEMYHLLYGCVGYVMYWVIMAVMYWVWVKRCCRKRSQTVTLVHDIPDMCV
HA product versus WT (X1HAS1 [2]): low amounts of polydisperse HA

B3: R296K: X1HAS1 mutant, Arg296 replaced with Lys (protein, UniProt P13563 1-588, looked up, variant R296K)
Hyaluronan synthase 1: MKEKAAETMEIPEGIPKDLEPKHPTLWRIIYYSFGVVLLATITAAYVAEFQVLKHEAILFSLGLYGLAMLLHLMMQSLFAFLEIRRVNKSELPCSFKKTVALTIAGYQENPEYLIKCLESCKYVKYPKDKLKIILVIDGNTEDDAYMMEMFKDVFHGEDVGTYVWKGNYHTVKKPEETNKGSCPEVSKPLNEDEGINMVEELVRNKRCVCIMQQWGGKREVMYTAFQAIGTSVDYVQVCDSDTKLDELATVEMVKVLESNDMYGAVGGDVRILNPYDSFISFMSSLRYWMAFNVEKACQSYFDCVSCISGPLGMYRNNILQVFLEAWYRQKFLGTYCTLGDDRHLTNRVLSMGYRTKYTHKSRAFSETPSLYLRWLNQQTRWTKSYFREWLYNAQWWHKHHIWMTYESVVSFIFPFFITATVIRLIYAGTIWNVVWLLLCIQIMSLFKSIYACWLRGNFIMLLMSLYSMLYMTGLLPSKYFALLTLNKTGWGTSGRKKIVGNYMPILPLSIWAAVLCGGVGYSIYMDCQNDWSTPEKQKEMYHLLYGCVGYVMYWVIMAVMYWVWVKRCCRKRSQTVTLVHDIPDMCV
HA product versus WT (X1HAS1 [2]): low molecular weight

B4: C307A: X1HAS1 mutant, Cys307 replaced with Ala (protein, UniProt P13563 1-588, looked up, variant C307A)
Hyaluronan synthase 1: MKEKAAETMEIPEGIPKDLEPKHPTLWRIIYYSFGVVLLATITAAYVAEFQVLKHEAILFSLGLYGLAMLLHLMMQSLFAFLEIRRVNKSELPCSFKKTVALTIAGYQENPEYLIKCLESCKYVKYPKDKLKIILVIDGNTEDDAYMMEMFKDVFHGEDVGTYVWKGNYHTVKKPEETNKGSCPEVSKPLNEDEGINMVEELVRNKRCVCIMQQWGGKREVMYTAFQAIGTSVDYVQVCDSDTKLDELATVEMVKVLESNDMYGAVGGDVRILNPYDSFISFMSSLRYWMAFNVERACQSYFDCVSAISGPLGMYRNNILQVFLEAWYRQKFLGTYCTLGDDRHLTNRVLSMGYRTKYTHKSRAFSETPSLYLRWLNQQTRWTKSYFREWLYNAQWWHKHHIWMTYESVVSFIFPFFITATVIRLIYAGTIWNVVWLLLCIQIMSLFKSIYACWLRGNFIMLLMSLYSMLYMTGLLPSKYFALLTLNKTGWGTSGRKKIVGNYMPILPLSIWAAVLCGGVGYSIYMDCQNDWSTPEKQKEMYHLLYGCVGYVMYWVIMAVMYWVWVKRCCRKRSQTVTLVHDIPDMCV
HA product versus WT (X1HAS1 [2]): low amounts of polydisperse HA

B5: R381A: X1HAS1 mutant, Arg381 of QxxRW motif replaced with Ala (protein, UniProt P13563 1-588, looked up, variant R381A)
Hyaluronan synthase 1: MKEKAAETMEIPEGIPKDLEPKHPTLWRIIYYSFGVVLLATITAAYVAEFQVLKHEAILFSLGLYGLAMLLHLMMQSLFAFLEIRRVNKSELPCSFKKTVALTIAGYQENPEYLIKCLESCKYVKYPKDKLKIILVIDGNTEDDAYMMEMFKDVFHGEDVGTYVWKGNYHTVKKPEETNKGSCPEVSKPLNEDEGINMVEELVRNKRCVCIMQQWGGKREVMYTAFQAIGTSVDYVQVCDSDTKLDELATVEMVKVLESNDMYGAVGGDVRILNPYDSFISFMSSLRYWMAFNVERACQSYFDCVSCISGPLGMYRNNILQVFLEAWYRQKFLGTYCTLGDDRHLTNRVLSMGYRTKYTHKSRAFSETPSLYLRWLNQQTAWTKSYFREWLYNAQWWHKHHIWMTYESVVSFIFPFFITATVIRLIYAGTIWNVVWLLLCIQIMSLFKSIYACWLRGNFIMLLMSLYSMLYMTGLLPSKYFALLTLNKTGWGTSGRKKIVGNYMPILPLSIWAAVLCGGVGYSIYMDCQNDWSTPEKQKEMYHLLYGCVGYVMYWVIMAVMYWVWVKRCCRKRSQTVTLVHDIPDMCV
substrate turnover / catalytic activity compared to WT (X1HAS1 [1]): cannot be replaced

B6: R496K: X1HAS1 mutant, Arg496 replaced with Lys (protein, UniProt P13563 1-588, looked up, variant R496K)
Hyaluronan synthase 1: MKEKAAETMEIPEGIPKDLEPKHPTLWRIIYYSFGVVLLATITAAYVAEFQVLKHEAILFSLGLYGLAMLLHLMMQSLFAFLEIRRVNKSELPCSFKKTVALTIAGYQENPEYLIKCLESCKYVKYPKDKLKIILVIDGNTEDDAYMMEMFKDVFHGEDVGTYVWKGNYHTVKKPEETNKGSCPEVSKPLNEDEGINMVEELVRNKRCVCIMQQWGGKREVMYTAFQAIGTSVDYVQVCDSDTKLDELATVEMVKVLESNDMYGAVGGDVRILNPYDSFISFMSSLRYWMAFNVERACQSYFDCVSCISGPLGMYRNNILQVFLEAWYRQKFLGTYCTLGDDRHLTNRVLSMGYRTKYTHKSRAFSETPSLYLRWLNQQTRWTKSYFREWLYNAQWWHKHHIWMTYESVVSFIFPFFITATVIRLIYAGTIWNVVWLLLCIQIMSLFKSIYACWLRGNFIMLLMSLYSMLYMTGLLPSKYFALLTLNKTGWGTSGKKKIVGNYMPILPLSIWAAVLCGGVGYSIYMDCQNDWSTPEKQKEMYHLLYGCVGYVMYWVIMAVMYWVWVKRCCRKRSQTVTLVHDIPDMCV
HA product versus WT, short reaction (X1HAS1 [2]): slightly increased length | HA product versus WT, long reaction (X1HAS1 [2]; 8 h synthesis reaction): greater polydispersity

B7: C337S: X1HAS1 mutant, Cys337 replaced with Ser (protein, UniProt P13563 1-588, looked up, variant C337S)
Hyaluronan synthase 1: MKEKAAETMEIPEGIPKDLEPKHPTLWRIIYYSFGVVLLATITAAYVAEFQVLKHEAILFSLGLYGLAMLLHLMMQSLFAFLEIRRVNKSELPCSFKKTVALTIAGYQENPEYLIKCLESCKYVKYPKDKLKIILVIDGNTEDDAYMMEMFKDVFHGEDVGTYVWKGNYHTVKKPEETNKGSCPEVSKPLNEDEGINMVEELVRNKRCVCIMQQWGGKREVMYTAFQAIGTSVDYVQVCDSDTKLDELATVEMVKVLESNDMYGAVGGDVRILNPYDSFISFMSSLRYWMAFNVERACQSYFDCVSCISGPLGMYRNNILQVFLEAWYRQKFLGTYSTLGDDRHLTNRVLSMGYRTKYTHKSRAFSETPSLYLRWLNQQTRWTKSYFREWLYNAQWWHKHHIWMTYESVVSFIFPFFITATVIRLIYAGTIWNVVWLLLCIQIMSLFKSIYACWLRGNFIMLLMSLYSMLYMTGLLPSKYFALLTLNKTGWGTSGRKKIVGNYMPILPLSIWAAVLCGGVGYSIYMDCQNDWSTPEKQKEMYHLLYGCVGYVMYWVIMAVMYWVWVKRCCRKRSQTVTLVHDIPDMCV
HA product versus WT (X1HAS1 [2]): slight length reduction

B8: R287K: X1HAS1 mutant, Arg287 replaced with Lys (protein, UniProt P13563 1-588, looked up, variant R287K)
Hyaluronan synthase 1: MKEKAAETMEIPEGIPKDLEPKHPTLWRIIYYSFGVVLLATITAAYVAEFQVLKHEAILFSLGLYGLAMLLHLMMQSLFAFLEIRRVNKSELPCSFKKTVALTIAGYQENPEYLIKCLESCKYVKYPKDKLKIILVIDGNTEDDAYMMEMFKDVFHGEDVGTYVWKGNYHTVKKPEETNKGSCPEVSKPLNEDEGINMVEELVRNKRCVCIMQQWGGKREVMYTAFQAIGTSVDYVQVCDSDTKLDELATVEMVKVLESNDMYGAVGGDVRILNPYDSFISFMSSLKYWMAFNVERACQSYFDCVSCISGPLGMYRNNILQVFLEAWYRQKFLGTYCTLGDDRHLTNRVLSMGYRTKYTHKSRAFSETPSLYLRWLNQQTRWTKSYFREWLYNAQWWHKHHIWMTYESVVSFIFPFFITATVIRLIYAGTIWNVVWLLLCIQIMSLFKSIYACWLRGNFIMLLMSLYSMLYMTGLLPSKYFALLTLNKTGWGTSGRKKIVGNYMPILPLSIWAAVLCGGVGYSIYMDCQNDWSTPEKQKEMYHLLYGCVGYVMYWVIMAVMYWVWVKRCCRKRSQTVTLVHDIPDMCV
HA product versus WT (X1HAS1 [2]): polydisperse
